Assay results published in publication PMC12245028.

Molecular target: p65 (RELA, Transcription factor p65) (UniProt Q04206)
Test: anti-HA co-IP, p65 blot
Settings: reference: HA-WEE1 wild type; sites S642

HA-WEE1 (from UniProt P30291) HA-WEE1 S642A
binding against the reference: lost
